Laboratory results as given in PMC7327521 (Journal of Molecular Biology, 2020).
Numbering of substitutions follows the chain as printed. Square brackets hold non-standard residues; d marks the D form. Ends that are not written are not given here. pY = N[C@@H](Cc1ccc(OP(=O)(O)O)cc1)C(=O)O

How the values were obtained:
Test in all cases: fluorescence polarisation
[1] = biological target: T1, Spt6 from S. cerevisiae lacking the first unstructured 297 residues (Spt6ΔN) (S. cerevisiae, UniProt P23615 298-1451)
T1 sequence (looked up): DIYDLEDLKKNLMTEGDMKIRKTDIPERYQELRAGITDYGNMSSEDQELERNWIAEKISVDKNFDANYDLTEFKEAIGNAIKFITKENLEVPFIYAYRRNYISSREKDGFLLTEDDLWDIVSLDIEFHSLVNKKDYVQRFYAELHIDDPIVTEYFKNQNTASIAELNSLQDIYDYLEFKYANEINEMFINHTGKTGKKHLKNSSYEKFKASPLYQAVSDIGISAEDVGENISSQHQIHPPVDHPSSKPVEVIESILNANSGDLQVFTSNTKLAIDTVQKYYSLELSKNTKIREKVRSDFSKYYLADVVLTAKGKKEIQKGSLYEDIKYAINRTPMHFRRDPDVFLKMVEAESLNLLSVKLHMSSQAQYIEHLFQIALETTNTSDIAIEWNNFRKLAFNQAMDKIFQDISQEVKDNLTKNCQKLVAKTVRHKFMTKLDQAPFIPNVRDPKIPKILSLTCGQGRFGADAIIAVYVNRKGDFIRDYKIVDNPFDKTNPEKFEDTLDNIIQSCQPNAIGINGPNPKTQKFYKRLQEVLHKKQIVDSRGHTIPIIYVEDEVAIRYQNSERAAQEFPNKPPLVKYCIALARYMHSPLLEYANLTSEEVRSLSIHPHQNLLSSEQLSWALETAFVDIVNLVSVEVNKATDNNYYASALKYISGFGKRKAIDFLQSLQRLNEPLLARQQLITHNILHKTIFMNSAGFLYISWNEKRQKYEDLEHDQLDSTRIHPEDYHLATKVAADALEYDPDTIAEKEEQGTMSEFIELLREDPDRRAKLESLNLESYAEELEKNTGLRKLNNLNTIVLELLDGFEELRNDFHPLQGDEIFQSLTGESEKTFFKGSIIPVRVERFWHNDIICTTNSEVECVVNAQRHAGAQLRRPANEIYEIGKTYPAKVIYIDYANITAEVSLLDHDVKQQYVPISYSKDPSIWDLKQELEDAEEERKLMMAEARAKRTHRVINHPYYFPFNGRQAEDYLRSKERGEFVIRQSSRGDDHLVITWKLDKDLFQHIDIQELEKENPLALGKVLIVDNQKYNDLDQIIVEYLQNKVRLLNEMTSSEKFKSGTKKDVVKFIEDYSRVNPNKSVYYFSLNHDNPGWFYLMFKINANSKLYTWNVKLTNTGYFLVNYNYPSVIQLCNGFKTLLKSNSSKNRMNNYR

Spt6-tSH2 R1281A/R1285A = biological target: T2, Spt6-tSH2 R1281A/R1285A (C. glabrata, UniProt Q6FLB1 1250-1444, R1281A | R1285A)
T2 sequence (looked up): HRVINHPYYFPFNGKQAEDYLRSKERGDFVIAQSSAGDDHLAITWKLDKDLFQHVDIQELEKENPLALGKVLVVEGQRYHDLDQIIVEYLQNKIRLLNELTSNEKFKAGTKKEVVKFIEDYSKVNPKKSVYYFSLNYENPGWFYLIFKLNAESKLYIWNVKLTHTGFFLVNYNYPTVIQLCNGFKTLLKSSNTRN

Spt6-tSH2 K1360A = biological target: T3, Spt6-tSH2 K1360A (C. glabrata, UniProt Q6FLB1 1250-1444, K1360A)
T3 sequence (looked up): T2 sequence (looked up) with A32R, A36R, K111A

Spt6-tSH2 R1285A = biological target: T4, Spt6-tSH2 R1285A (C. glabrata, UniProt Q6FLB1 1250-1444, R1285A)
T4 sequence (looked up): T2 sequence (looked up) with A32R

Spt6-tSH2 R1281A/S1283A = biological target: T5, Spt6-tSH2 R1281A/S1283A (C. glabrata, UniProt Q6FLB1 1250-1444, R1281A | S1283A)
T5 sequence (looked up): T2 sequence (looked up) with S34A, A36R

Spt6-tSH2 K1434A = biological target: T6, Spt6-tSH2 K1434A (C. glabrata, UniProt Q6FLB1 1250-1444, K1434A)
T6 sequence (looked up): T2 sequence (looked up) with A32R, A36R, K185A

B1: (pY1-CTD)2, FAM-labelled tyrosine-phosphorylated CTD diheptad (peptide)
peptide: {5,6‑FAM}-PS[pY]SPTSPS[pY]SPTSPS
Kd [1]: 4 ± 0.5 µM | Kd (Spt6-tSH2 R1281A/R1285A): 11.6 µM | Kd (Spt6-tSH2 K1360A): 12.4 µM | Kd (Spt6-tSH2 R1285A): 12 µM | Kd (Spt6-tSH2 R1281A/S1283A): 35.5 µM | Kd (Spt6-tSH2 K1434A): 24 µM
